Reference: patent US20250059284A1 (AGENX, published 2025)

T1: human Gal10-His (human, UniProt Q05315 2-142, limits assumed)
T1 construct: also called human galectin-10; not shown: His tag
T1 sequence: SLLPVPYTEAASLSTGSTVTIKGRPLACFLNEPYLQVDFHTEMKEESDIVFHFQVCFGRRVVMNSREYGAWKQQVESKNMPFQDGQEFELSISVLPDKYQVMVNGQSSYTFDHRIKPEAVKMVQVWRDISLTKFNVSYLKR

T2: recombinant galectin-10 crystals (Charcot-Leyden crystals) (UniProt Q05315 2-142, limits assumed)
T2 sequence (looked up): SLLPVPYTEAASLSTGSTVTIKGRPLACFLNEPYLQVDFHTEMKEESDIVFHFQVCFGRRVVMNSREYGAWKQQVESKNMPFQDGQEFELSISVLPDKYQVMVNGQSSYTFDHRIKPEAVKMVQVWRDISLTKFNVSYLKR

T3: galectin-10 (Gal10), species and tag not stated for the assay (UniProt Q05315 2-142, limits assumed)
T3 construct: human is likely, since the human-specific 1D11 is in the panel
T3 sequence (looked up): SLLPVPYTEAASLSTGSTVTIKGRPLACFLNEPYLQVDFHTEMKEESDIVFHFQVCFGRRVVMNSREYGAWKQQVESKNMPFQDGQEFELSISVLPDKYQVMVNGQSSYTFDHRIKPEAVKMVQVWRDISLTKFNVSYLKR


Legend:
human Gal10-His [1] = molecular target: T1, human Gal10-His; experiment: SPR Biacore 3000; human Gal10-His captured on anti-His CM5 chip
Description: The binding properties of the selected Fab clones to human Gal10 were analyzed via a capture method established on Biacore 3000. It was decided to apply two concentrations of the selected Fab clones on human Gal10-His immobilized on a CM5 chip coated with a monoclonal anti-His.

human Gal10-His [2] = molecular target: T1, human Gal10-His; experiment: SPR Biacore 3000; human Gal10-His captured on anti-His CM5 chip; Fab at 30 nM
Description: (§1) The binding properties of the selected Fab clones to human and cynomolgus Gal10 was analyzed via a capture method established on Biacore 3000. For this purpose, two approaches were used. In the first one, two concentrations of the selected Fab clone were applied on cynomolgus (WGS isoform) Gal10-His capture on a CM5 chip coated with a monoclonal anti-His. In the second approach, a serial dilution was applied on human or cynomolgus (WGS isoform) Gal10 His on the same set up.

[3] = molecular target: T4, cynomolgus Gal10-His (WGS isoform) (cynomolgus); experiment: SPR Biacore 3000; cynomolgus Gal10-His (WGS isoform) captured on anti-His CM5 chip; Fab at 30 nM
T4 construct: also called cyno Gal10; cynomolgus antigen
Description: as §1

[4] = molecular target: T2, recombinant galectin-10 crystals …; experiment: cell-based or functional assay
[5] = molecular target: T3, galectin-10 (Gal10), species and tag …; experiment: SPR (Biacore 3000), binding activity of the sample stored 4 weeks at +5 C and nebulized, relative to reference sample T0; criterion <20% loss
Description: The functional active concentration of the nebulized solutions was assessed by SPR on a Biacore 3000 instrument. All samples were evaluated with methods meeting the standard qualification criteria. Aliquots were tested at predefined test concentrations against titration curves from reference samples (TO) and in the presence of quality control (QC) samples.

Binder | fold better off rate than g7B07 (human Gal10-His [1]) [fold] | Amplitude R0 (RU) 30 nM (human Gal10-His [2]) [RU] | Amplitude R0 (RU) 30 nM [3] [RU] | EC50, Gal10 crystal dissolution, stressed material (T4W post-nebulization, after 2 hour incubation), assay 2 [4] [µg/mL] | EC50, Gal10 crystal dissolution, unstressed material (T0, after 2 hour incubation), assay 2 [4] [µg/mL] | relative activity in recombinant Gal10 crystal dissolution, T4W post-nebulization sample relative to unstressed material T0 (at 2 hour incubation) [4] [%] | relative activity by SPR for T4W post-nebulization sample relative to reference sample T0 [5] [%] | EC50, Gal10 crystal dissolution, stressed material (T4W post-nebulization, after 2 hour incubation), assay 1 [4] [µg/mL] | EC50, Gal10 crystal dissolution, unstressed material (T0, after 2 hour incubation), assay 1 [4] [µg/mL] | relative activity in recombinant Gal10 crystal dissolution, T4W post-nebulization sample relative to unstressed material T0 (at 2 hour incubation), assay 1 [4] [%] | relative activity in recombinant Gal10 crystal dissolution, T4W post-nebulization sample relative to unstressed material T0 (at 2 hour incubation), assay 2 [4] [%]
g24F02_N53A human Fab (Fab, V domains shown, Human Fab backbone) VH: EVQLLESGGGLVQPGGSLRLSCAASGFTFSSYAMSWVRQAPGKGLEWVSAINAGGGSTSYADSVKGRFTISRDNSKNTLYLQMNSLRAEDTAVYYCAKGLRVGVLGFDYWGQGTLVTVSS VL: SYELTQPLSVSVALGQTARITCDGNNIGSKSAQWYQQKPGQAPVLVIYADEYRPEGIPERFSGSNSGNTATLTISRAQAGDEADYYCQVWDGSAAVFGGGTQLTVL | 3.5 | 647 | 544 | 159 | 191 | 120 | 111 | – | – | – | –
g20H09 human Fab (Fab, V domains shown, Germlined clone in human Fab backbone; also called clone 20H09) VH: EVQLLESGGGLVQPGGSLRLSCAASGFTFRSYDMSWVRQAPGKGLEWVSAIKWHRITYYADSVKGRFTISRDNSKNTLYLQMNSLRAEDTAVYYCATTHGIGTLGFGSWGQGTLVTVSS VL: SYELTQPLSVSVALGQTARITCDGNNIGSKSAQWYQQKPGQAPVLVIYADEYRPEGIPERFSGSNSGNTATLTISRAQAGDEADYYCQVWDGSAAVFGGGTQLTVL | – | – | – | – | – | 66 | 97 | 395 | 260 | – | –
g23H09 human Fab (Fab, V domains shown, Germlined clone in human Fab backbone; also called clone 23H09) VH: EVQLLESGGGLVQPGGSLRLSCAASGFTFRSYDMSWVRQAPGKGLEWVSAIAQFQHWTYYADSVKGRFTISRDNSKNTLYLQMNSLRAEDTAVYYCATTHGIGTLGFGSWGQGTLVTVSS VL: SYELTQPLSVSVALGQTARITCDGNNIGSKSAQWYQQKPGQAPVLVIYADEYRPEGIPERFSGSNSGNTATLTISRAQAGDEADYYCQVWDGSAAVFGGGTQLTVL | 1.9 | 722 | 589 | 209 | 190 | – | 119 | 297 | 252 | 85 | 91
g24F02 human Fab (Fab, V domains shown, Germlined clone in human Fab backbone) VH: EVQLLESGGGLVQPGGSLRLSCAASGFTFSSYAMSWVRQAPGKGLEWVSAINNGGGSTSYADSVKGRFTISRDNSKNTLYLQMNSLRAEDTAVYYCAKGLRVGVLGFDYWGQGTLVTVSS VL: SYELTQPLSVSVALGQTARITCDGNNIGSKSAQWYQQKPGQAPVLVIYADEYRPEGIPERFSGSNSGNTATLTISRAQAGDEADYYCQVWDGSAAVFGGGTQLTVL | – | 644 | 566 | – | – | – | – | – | – | – | –
